One data set has as its system HEK293-T cells. As to the kind of experiment: Luciferase expression from hypoxia-inducible promoters in transiently transfected HEK293-T cells. In kind it is cell-based, human. The conditions noted are these: for luciferase activity in normoxia: normoxic conditions, FIG. 4. As for the experimental part:
HEK293-T are seeded at a density of 20%. Once they reached a confluence between 60 and 80%, the media is changed with DMEM (#21885-025—Thermo Scientific) supplemented with 10% FBS (Gibco, 26140). After 3 hours, the cells are transfected by a transfection mix. The transfection mix is prepared by adding DNA (2 μg per 6 well plate) and PEI 25 kDA (#23966-1—Polyscience) in a ratio of 1:3 in sterile DPBS (#14190169—ThermoFisher Scientific). After mixing, the transfection mix is incubated at room temperature for 30 minutes and then added directly to the cells. After 16 to 18 h post transfection, the media is changed to DMEM+2% FBS. The transfected DNA is one of the vectors where the promoter construct (Synp-RTV-016, Synp-HYBT and Synp-HV3C) or a control promoter (CMV-IE) are used to drive luciferase expression and P-galactosidase containing pcDNA6 plasmid. The β-galactosidase containing plasmid is used as internal control for transfection efficiency (Thermofisher, V22020).
After transfection the cells are incubated for 24 hrs in normoxic conditions (20% oxygen). Induction of the promoters is assessed by using luciferase activity after 24 hrs in normoxia or hypoxia (5% oxygen, 10% carbon dioxide and 85% nitrogen). Hypoxia is achieved by gas displacement in a sealed hypoxia chamber.
(§1) Luciferase activity is measured using LARII (Dual Luciferase Reporter 1000 assay system, Promega, E1980).
Media is removed from the cells at the respective time point (0, 3, 5, 24 hrs after induction). The cells are washed once in 300 μl of DPBS. Cells are lysed by adding 100 μl of passive lysis buffer to the cells and incubation with rocking for 15 minutes. The cell debris is pelleted by centrifugation of the plate at max speed in a benchtop centrifuge for 1 min. 10 μl of supernatant is pipetted into white 96-well plate and luminescence measured by addition of 50 μl of LARII substrate.
β-galactosidase activity is measured as per manufacturer's instructions (Mammalian PGalactosidase Assay Kit, 75707/75710, Thermo Scientific) using 25 µl of lysate. 25 μl of lysate is transferred into a microplate well and mixed with 25 μl of β-galactosidase Assay Reagent, equilibrated to room temperature. The mixture is incubated at 37° C. for 30 min and absorbance measured at 405 nm.
(§2) Luciferase readouts are normalised to β-galactosidase to produce normalised relative luminometer units (RLUs).

The test system of the next data set is HEK293-F cells. As to the kind of experiment: Luciferase expression from hypoxia-inducible promoters in transiently transfected HEK293-F cells. The data set is classed as cell-based, human. The following applies: cells placed in hypoxia at 0 hours; FIG. 3. The procedure:
40 ml of cells are grown in a 250 ml vented Erlenmeyer flask (Sigma-Aldrich CLS431144) at 37° C., 20% O2, 8% CO2 with agitation at 100 rpm. Cells are seeded as described in the manufacturer's instructions (300,000 cells/ml). HEK293-F are obtained from Thermofisher, R79007.
One day before transfection, the cells are counted using a haemocytometer and split to 500,000 cells/ml.
On the day of transfection, the cells are seeded to 1,000,000 cells/ml in 500 µl of appropriate medium (Freestyle 293 expression medium, 12338002) in a 24 well plate. […] of DNA per well is then added to 10 μl of OptiMem medium (Thermofisher; 11058021) and incubated for 5 minutes at room temperature.
Concurrently, 0.625 μl of Max reagent (Thermofisher, 16447100) is made up to […] by addition of OptiMem and incubated for 5 minutes at room temperature. After this incubation, both mixes are added to the same tube and incubated at room temperature for 25-30 minutes. The DNA/Max reagent mix (20 μl/well) is then added directly to the cells and the cells incubated at 37° C., 8% CO2 with agitation at 100 rpm. […]
After transfection the cells are incubated for 24 hrs in normoxia conditions (20% oxygen) before being switched to a gas mix of 5% oxygen, 10% carbon dioxide and 85% nitrogen (hypoxia). […] Induction of the promoters is assessed by using luciferase activity after 3, 5 and 24 hrs in hypoxia.
as §1
Media is removed from the cells at the respective time point (0, 3, 5, 24 hrs after induction). […] 10 μl of supernatant is pipetted into white 96-well plate and luminescence measured by addition of 50 μl of LARII substrate.
β-galactosidase activity is measured as per manufacturer's instructions (Mammalian PGalactosidase Assay Kit, 75707/75710, Thermo Scientific) using 25 µl of lysate. […] The mixture is incubated at 37° C. for 30 min and absorbance measured at 405 nm.
as §2

The next data set deals with Huh7 (liver). As to the kind of experiment: Luciferase expression from forskolin-inducible promoters in Huh7 cells. In kind it is cell-based, human. The conditions noted are these: for luciferase activity after induction, promoter expressed from an AAV vector: 20 μM forskolin or 7.2 μM NKH477; for luciferase activity after induction, promoter expressed from an AAV vector / luciferase activity without induction, promoter expressed from an AAV vector: FIG. 8; for luciferase activity after induction: 20 μM forskolin; for luciferase activity after induction / luciferase activity without induction: FIG. 6; for luciferase activity without induction, promoter expressed from an AAV vector: AAV vector containing ITRs. The procedure:
Luciferase activity was measured without induction and after induction with 20 μM forskolin or 7.2 μM NKH477.

Another data set deals with C2C12 (muscle) cells. Briefly: Luciferase expression from forskolin-inducible promoter in C2C12 cells. In kind it is cell-based, mouse. The conditions noted are these: FIG. 7. The text has this: CMV-IE expression was not analyzed under induced conditions, and thus no result is shown in the graph.

B1: Synp-HYBT: synthetic hypoxia-inducible promoter, SEQ ID NO: 2; 4 HRE3 and a YB-TATA minimal promoter (nucleic acid)
DNA: ACCTTGAGTACGTGCGTCTCTGCACGTATGGCGATTAAGACCTTGAGTACGTGCGTCTCTGCACGTATGGCGATTAAGACCTTGAGTACGTGCGTCTCTGCACGTATGGCGATTAAGACCTTGAGTACGTGCGTCTCTGCACGTATGGCGATTAATCCATATGCTCTAGAGGGTATATAATGGGGGCCA
For B1, in the data set with HEK293-T cells, the “luciferase expression / inducibility after 24 hours in hypoxia versus normoxia” value is on record as “induced to a varying level” and the “luciferase activity in normoxia” value is “almost no luciferase activity”. Besides, the “luciferase activity over time in hypoxia” value with HEK293-F cells is given as “increase in luciferase activity with time”.

B2: Synp-RTV-019: synthetic forskolin-inducible promoter, SEQ ID NO: 5; 3×ATF6, 4× AP1 and 3× HIF TFBS and a CMV-MP (nucleic acid)
DNA: TGACGTGCTGATGATGCGTAGCTAGTAGTTGACGTGCTGATGATGCGTAGCTAGTAGTTGACGTGCTGATGATGCGTAGCTAGTAGTTGAGTCAGATGATGCGTAGCTAGTAGTTGAGTCAGATGATGCGTAGCTAGTAGTTGAGTCAGATGATGCGTAGCTAGTAGTTGAGTCAGATGATGCGTAGCTAGTAGTCTGCACGTAGATGATGCGTAGCTAGTAGTCTGCACGTAGATGATGCGTAGCTAGTAGTCTGCACGTAGATGATGCGTAGCTAGTAGTGCAGTTAGCGTAGCTGAGGTACCGTCGACGATATCGGATCCAGGTCTATATAAGCAGAGCTCGTTTAGTGAACCGTCAGATCGCCTAGATACGCCATCCACGCTGTTTTGACCTCCATAGAAGATCGCCACC
As to B2, in the data set with Huh7 (liver), the “luciferase activity after induction, promoter expressed from an AAV vector” value was “high activity”; the “luciferase activity after induction” value was “high activity”; the “luciferase activity without induction, promoter expressed from an AAV vector” value is “low background activity”; the “luciferase activity without induction” value was “low background activity”. The “luciferase activity after induction” value in the data set with C2C12 (muscle) cells (20 μM forskolin) is “high activity”. In the data set with C2C12 (muscle) cells, the “luciferase activity without induction” value is reported as “low background activity”.

B3: Synp-RTV-017: synthetic forskolin-inducible promoter, SEQ ID NO: 4; 8× AP1 TFBS and a CMV-MP (nucleic acid)
DNA: TGAGTCAGATGATGCGTAGCTAGTAGTTGAGTCAGATGATGCGTAGCTAGTAGTTGAGTCAGATGATGCGTAGCTAGTAGTTGAGTCAGATGATGCGTAGCTAGTAGTTGAGTCAGATGATGCGTAGCTAGTAGTTGAGTCAGATGATGCGTAGCTAGTAGTTGAGTCAGATGATGCGTAGCTAGTAGTTGAGTCAGTAGTCGTATGCTGATGCGCAGTTAGCGTAGCTGAGGTACCGTCGACGATATCGGATCCAGGTCTATATAAGCAGAGCTCGTTTAGTGAACCGTCAGATCGCCTAGATACGCCATCCACGCTGTTTTGACCTCCATAGAAGATCGCCACC
In the case of B3, in the data set with Huh7 (liver), the “luciferase activity after induction, promoter expressed from an AAV vector” value is reported as “high activity”; the “luciferase activity after induction” value is “high activity”; the “luciferase activity without induction, promoter expressed from an AAV vector” value is “low background activity”; the “luciferase activity without induction” value is “low background activity”.

B4: Synp-HV3C: synthetic hypoxia-inducible promoter, SEQ ID NO: 3; 4 HRE3 and CMV minimal promoter (nucleic acid)
DNA: ACCTTGAGTACGTGCGTCTCTGCACGTATGGCGATTAAGACCTTGAGTACGTGCGTCTCTGCACGTATGGCGATTAAGACCTTGAGTACGTGCGTCTCTGCACGTATGGCGATTAAGACCTTGAGTACGTGCGTCTCTGCACGTATGGCGATTAATCCATATGCAGGTCTATATAAGCAGAGCTCGTTTAGTGAACCGTCAGATCGCCTAGATACGCCATCCACGCTGTTTTGACCTCCATAGAAGATCGCCACC
Regarding B4, in the data set with HEK293-T cells, the “luciferase expression / inducibility after 24 hours in hypoxia versus normoxia” value is reported as “highest” and the “luciferase activity in normoxia” value is on record as “almost no luciferase activity”. Further, the “luciferase activity over time in hypoxia” value in the data set with HEK293-F cells is reported as “increase in luciferase activity with time”.

B5: Synp-RTV-016: synthetic hypoxia-inducible promoter, SEQ ID NO: 1; 6 HRE2 and CMV minimal promoter (nucleic acid)
DNA: CTGCACGTAGATGATGCGTAGCTAGTAGTCTGCACGTAGATGATGCGTAGCTAGTAGTCTGCACGTAGATGATGCGTAGCTAGTAGTCTGCACGTAGATGATGCGTAGCTAGTAGTCTGCACGTAGATGATGCGTAGCTAGTAGTCTGCACGTAGTAGTCGTATGCTGATGCGCAGTTAGCGTAGCTGAGGTACCGTCGACGATATCGGATCCAGGTCTATATAAGCAGAGCTCGTTTAGTGAACCGTCAGATCGCCTAGATACGCCATCCACGCTGTTTTGACCTCCATAGAAGATCGCCACC
As for B5, in the data set on HEK293-T cells, the “luciferase expression / inducibility after 24 hours in hypoxia versus normoxia” value is reported as “lowest” and the “luciferase activity in normoxia” value is recorded as “almost no luciferase activity”. Further, in the data set on HEK293-F cells, the “luciferase activity over time in hypoxia” value is “increase in luciferase activity with time”.

B6: Synp-FORCYB1: synthetic forskolin-inducible promoter, SEQ ID NO: 6; 5× cAMPRE and 4× AP1 TFBS and YB-TATA-MP (nucleic acid)
DNA: TGACGTCACGATTACCATTGACGTCACGATTACCATTGACGTCACGATTACCATTGACGTCACGATTACCATTGACGTCAGCGATTAAGATGACTCAGCGATTAAGATGACTCAGCGATTAAGATGACTCAGCGATTAAGATGACTCAGCGATTAATCCATATGCTCTAGAGGGTATATAATGGGGGCCACTAGTCTACTACCAGAAAGCTTGGTACCGAGCTCGGATCCAGCCACC
B6: in the data set on Huh7 (liver), the “luciferase activity after induction, promoter expressed from an AAV vector” value is given as “high activity” and the “luciferase activity without induction, promoter expressed from an AAV vector” value was “low background activity”.

For the origin of these results see US20230407327A1, “INDUCIBLE PROMOTER FOR VIRAL VECTOR PRODUCTION” (ASKLEPIOS BIOPHARMACEUTICAL, INC., priority 2020, published 2023).
